Measurements taken from patent US20240239894A1 (AstraZeneca / MedImmune, published 2024).

Experiments:
huBTN2A1 = molecular target: T1, huBTN2A1 (human, UniProt Q7KYR7 29-248, limits assumed); assay: ELISA
T1 construct: Sourced antigen; construct not described; also called Human BTN2A1
T1 sequence (looked up): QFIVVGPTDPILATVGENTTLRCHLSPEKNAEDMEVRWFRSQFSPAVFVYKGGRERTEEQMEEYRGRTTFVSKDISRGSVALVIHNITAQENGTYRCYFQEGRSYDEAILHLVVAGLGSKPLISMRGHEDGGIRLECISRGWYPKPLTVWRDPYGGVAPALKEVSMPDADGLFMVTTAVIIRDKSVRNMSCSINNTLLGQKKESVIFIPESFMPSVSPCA

huBTNL3 = molecular target: T2, huBTNL3 (human, UniProt Q6UXE8 18-237, limits assumed); assay: ELISA
T2 construct: Sourced antigen; construct not described; also called Human BTNL3
T2 sequence (looked up): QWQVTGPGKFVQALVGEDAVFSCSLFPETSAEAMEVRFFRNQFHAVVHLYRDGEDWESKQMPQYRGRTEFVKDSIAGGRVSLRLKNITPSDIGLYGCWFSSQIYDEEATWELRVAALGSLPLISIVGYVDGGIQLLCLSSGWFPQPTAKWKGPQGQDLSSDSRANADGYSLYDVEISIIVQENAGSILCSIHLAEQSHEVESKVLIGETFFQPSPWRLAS

[1] = molecular target: T3, Murine B7-H4-Fc (Mouse B7H4 ECD, Fc_6His) (mouse, UniProt Q7TSP5 25-257); assay: HTRF binding, murine IgG1
T3 construct: extracellular domain; also called mouse B7-H4-Fc; FcHis6 tagged murine B7-H4
T3 sequence (Q7TSP5 whole entry, looked up): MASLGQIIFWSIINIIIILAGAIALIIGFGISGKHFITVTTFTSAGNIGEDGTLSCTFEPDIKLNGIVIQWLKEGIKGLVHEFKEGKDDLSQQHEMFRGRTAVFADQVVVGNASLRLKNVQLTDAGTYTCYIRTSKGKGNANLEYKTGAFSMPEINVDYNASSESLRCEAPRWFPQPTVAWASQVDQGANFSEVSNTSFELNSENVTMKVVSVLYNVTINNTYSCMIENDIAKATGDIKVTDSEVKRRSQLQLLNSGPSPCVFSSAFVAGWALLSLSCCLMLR

huB7-H1 = molecular target: T4, huB7-H1 (human, UniProt Q9NZQ7 19-238); assay: ELISA, absorbance 450 nm, antigen human B7-H1(ECD) F10H
T4 construct: Sourced antigen; construct not described; also called Human B7-H1
T4 sequence (Q9NZQ7 19-238 limits assumed): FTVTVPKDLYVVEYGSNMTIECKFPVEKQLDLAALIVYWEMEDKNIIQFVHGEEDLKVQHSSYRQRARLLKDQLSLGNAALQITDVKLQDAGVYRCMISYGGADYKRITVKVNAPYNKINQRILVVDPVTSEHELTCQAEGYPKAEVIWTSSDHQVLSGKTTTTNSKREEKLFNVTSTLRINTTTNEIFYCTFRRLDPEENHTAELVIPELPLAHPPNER

huB7-H3 = molecular target: T5, huB7-H3 (human, UniProt Q5ZPR3 29-461, limits assumed); assay: ELISA, absorbance 450 nm, antigen human B7-H3 (ECD) Fc
T5 construct: Sourced antigen; construct not described; also called Human B7-H3
T5 sequence (looked up): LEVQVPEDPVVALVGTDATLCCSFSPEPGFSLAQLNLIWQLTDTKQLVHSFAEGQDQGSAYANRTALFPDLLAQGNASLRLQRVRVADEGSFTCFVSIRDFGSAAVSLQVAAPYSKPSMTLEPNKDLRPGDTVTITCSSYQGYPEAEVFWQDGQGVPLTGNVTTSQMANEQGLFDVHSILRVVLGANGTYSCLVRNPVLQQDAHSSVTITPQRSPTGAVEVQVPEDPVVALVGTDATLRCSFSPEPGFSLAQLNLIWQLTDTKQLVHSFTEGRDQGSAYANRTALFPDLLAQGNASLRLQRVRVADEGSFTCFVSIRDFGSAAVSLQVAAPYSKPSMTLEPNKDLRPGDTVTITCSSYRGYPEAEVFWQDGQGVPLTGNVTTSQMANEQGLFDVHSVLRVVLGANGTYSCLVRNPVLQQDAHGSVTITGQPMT

[2] = molecular target: T6, Human B7-H4-Fc (Human B7H4 ECD, Fc_6His) (human); assay: HTRF binding, murine IgG1
T6 construct: also called FcHis6 tagged human B7-H4
T6 sequence (Q7Z7D3 whole entry, looked up): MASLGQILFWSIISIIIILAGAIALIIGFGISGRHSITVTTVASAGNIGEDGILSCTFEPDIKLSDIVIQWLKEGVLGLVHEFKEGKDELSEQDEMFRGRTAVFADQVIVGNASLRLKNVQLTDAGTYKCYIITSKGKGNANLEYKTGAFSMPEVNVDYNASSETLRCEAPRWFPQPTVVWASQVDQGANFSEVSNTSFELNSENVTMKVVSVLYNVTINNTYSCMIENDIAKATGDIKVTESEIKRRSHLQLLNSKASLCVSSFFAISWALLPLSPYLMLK

huBTN1A1 = molecular target: T7, huBTN1A1 (human, UniProt Q13410 27-242, limits assumed); assay: ELISA, absorbance 450 nm, antigen human BTN1A1 GST
T7 construct: Sourced antigen; construct not described; also called Human BTN1A1
T7 sequence (looked up): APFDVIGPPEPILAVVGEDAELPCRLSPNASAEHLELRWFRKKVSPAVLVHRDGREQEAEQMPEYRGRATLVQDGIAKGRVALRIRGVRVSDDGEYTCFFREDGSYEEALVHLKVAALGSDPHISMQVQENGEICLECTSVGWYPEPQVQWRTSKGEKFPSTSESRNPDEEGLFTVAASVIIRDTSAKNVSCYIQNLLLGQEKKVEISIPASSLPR

huBTN3A2 = molecular target: T8, huBTN3A2 (human, UniProt P78410 30-248, limits assumed); assay: ELISA, absorbance 450 nm, antigen human BTN3A2 GST
T8 construct: Sourced antigen; construct not described; also called Human BTN3A2
T8 sequence (P78410 30-248 limits assumed): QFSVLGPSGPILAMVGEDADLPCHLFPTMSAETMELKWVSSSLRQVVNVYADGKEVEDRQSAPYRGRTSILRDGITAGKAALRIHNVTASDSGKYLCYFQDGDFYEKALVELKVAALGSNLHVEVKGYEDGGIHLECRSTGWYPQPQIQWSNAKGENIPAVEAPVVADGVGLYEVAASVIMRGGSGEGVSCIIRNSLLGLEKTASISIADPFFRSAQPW

[3] = molecular target: T9, Cyno B7-H4-Fc (Cyno B7H4 ECD, FcTM_6His) (cynomolgus monkey); assay: HTRF binding, murine IgG1
T9 construct: extracellular domain; also called cynomolgus B7-H4-Fc

huB7-H2 = molecular target: T10, huB7-H2 (human, UniProt O75144 19-258); assay: ELISA, absorbance 450 nm, antigen human B7-H2 (ECD) F10H
T10 construct: Sourced antigen; construct not described; also called Human B7-H2
T10 sequence (looked up): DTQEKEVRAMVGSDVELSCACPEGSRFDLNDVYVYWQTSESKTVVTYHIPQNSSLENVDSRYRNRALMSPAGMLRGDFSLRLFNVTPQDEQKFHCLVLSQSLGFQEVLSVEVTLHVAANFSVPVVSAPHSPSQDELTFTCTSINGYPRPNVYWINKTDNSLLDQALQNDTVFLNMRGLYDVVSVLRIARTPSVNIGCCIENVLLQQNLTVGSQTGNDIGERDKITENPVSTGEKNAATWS

huHHLA2 = molecular target: T11, huHHLA2 (human, UniProt Q9UM44 23-344); assay: ELISA, absorbance 450 nm, antigen human HHLA2 GST
T11 construct: Sourced antigen; construct not described; also called Human HHLA2
T11 sequence (looked up): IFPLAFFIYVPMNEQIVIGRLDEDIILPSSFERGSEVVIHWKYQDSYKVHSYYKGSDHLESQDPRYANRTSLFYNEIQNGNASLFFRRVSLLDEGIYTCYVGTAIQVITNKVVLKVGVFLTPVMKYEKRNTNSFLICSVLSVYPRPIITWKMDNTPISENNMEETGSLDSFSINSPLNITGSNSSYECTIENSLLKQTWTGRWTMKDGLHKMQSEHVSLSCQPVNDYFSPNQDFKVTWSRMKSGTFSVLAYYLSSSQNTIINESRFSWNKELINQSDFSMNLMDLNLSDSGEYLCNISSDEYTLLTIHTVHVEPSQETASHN

B1: ZY0EOB-F05 murine IgG1 (antibody, V domains shown)
VH: QVQLQESGPGLVKPSQTLSLTCTVSDGSISSGGYYWSWIRQHPGKGLEWIGNIYYSGSTYYNPSLKSRVTISVDTSKNQFSLKLNSVTAADTAVYYCATEKALATVTPSGYENYYTVDVWGQGTTVTVSS
VL: DIQLTQSPSFLSASVGDRVTITCWASQGISSYLAWYQQKPGKAPKLLIYAASTLQSGVPSRFSGSGSGTEFTLTISSLQPEDFATYYCQHLNSYPLTFGGGTKVEIK
huBTN2A1
  binding result: no binding
huBTNL3
  binding result: no binding
[1]
  EC50: 0.38 nM
  Max: 2190
huB7-H1
  binding result: no binding (tested: 10 µg/ml (antigen))
huB7-H3
  binding result: no binding
[2]
  EC50: 0.3 nM
  Max: 3020
huBTN1A1
  binding result: no binding (tested: 10 µg/ml (antigen))
huBTN3A2
  binding result: no binding (tested: about 10 µg/ml (antigen))
[3]
  EC50: 0.32 nM
  Max: 2400
huB7-H2
  binding result: no binding (tested: 10 µg/ml (antigen))
huHHLA2
  binding result: no binding (tested: about 10 µg/ml (antigen))

B2: human ZY0EOB-F05 (antibody, V domains shown)
VH: QVQLQESGPGLVKPSQTLSLTCTVSDGSISSGGYYWSWIRQHPGKGLEWIGNIYYSGSTYYNPSLKSRVTISVDTSKNQFSLKLNSVTAADTAVYYCATEKALATVTPSGYENYYTVDVWGQGTTVTVSS
VL: DIQLTQSPSFLSASVGDRVTITCWASQGISSYLAWYQQKPGKAPKLLIYAASTLQSGVPSRFSGSGSGTEFTLTISSLQPEDFATYYCQHLNSYPLTFGGGTKVEIK
huB7-H1
  binding result: no binding (tested: 10 µg/ml (antigen))
huB7-H3
  binding result: no binding
huBTN1A1
  binding result: no binding (tested: 10 µg/ml (antigen))
huBTN3A2
  binding result: no binding (tested: about 10 µg/ml (antigen))
huB7-H2
  binding result: no binding (tested: 10 µg/ml (antigen))
huHHLA2
  binding result: no binding (tested: about 10 µg/ml (antigen))

B3: human ZY0EO5-E07 (antibody, V domains shown)
VH: QVQLQESGPGLVKPSQTLSLTCTVSGGSISSGGYYWSWIRQHPGKGLEWIGNIYYSGSTYYNPSLKSRVTISVDTSKNQFSLKLSSVTAADTAVYYCAREKALASVIPSGYENYYVVDVWGQGTTVTVSS
VL: DIQLTQSPSFLSASVGGRVTITCWASQGIAGYLAWYQQKPGKAPKLLIYAASTLQSGVPSRFSGSGSGTEFTLTISSLQPEDFATYYCQHLNSYPLTFGGGTKVEIK
huB7-H1
  binding result: no binding (tested: 10 µg/ml (antigen))
huB7-H3
  binding result: no binding
huBTN1A1
  binding result: no binding (tested: 10 µg/ml (antigen))
huBTN3A2
  binding result: no binding (tested: about 10 µg/ml (antigen))
huB7-H2
  binding result: no binding (tested: 10 µg/ml (antigen))
huHHLA2
  binding result: no binding (tested: about 10 µg/ml (antigen))

B4: ZY0EO5-E07 murine IgG1 (antibody, V domains shown)
VH: QVQLQESGPGLVKPSQTLSLTCTVSGGSISSGGYYWSWIRQHPGKGLEWIGNIYYSGSTYYNPSLKSRVTISVDTSKNQFSLKLSSVTAADTAVYYCAREKALASVIPSGYENYYVVDVWGQGTTVTVSS
VL: DIQLTQSPSFLSASVGGRVTITCWASQGIAGYLAWYQQKPGKAPKLLIYAASTLQSGVPSRFSGSGSGTEFTLTISSLQPEDFATYYCQHLNSYPLTFGGGTKVEIK
notes: also called ZY0E05-E07; E05-E07
huBTN2A1
  binding result: no binding
huBTNL3
  binding result: no binding
[1]
  EC50: 0.73 nM
  Max: 1700
huB7-H1
  binding result: no binding (tested: 10 µg/ml (antigen))
huB7-H3
  binding result: no binding
[2]
  EC50: 0.68 nM
  Max: 2150
huBTN1A1
  binding result: no binding (tested: 10 µg/ml (antigen))
huBTN3A2
  binding result: no binding (tested: about 10 µg/ml (antigen))
[3]
  EC50: 0.71 nM
  Max: 1700
huB7-H2
  binding result: no binding (tested: 10 µg/ml (antigen))
huHHLA2
  binding result: no binding (tested: about 10 µg/ml (antigen))

B5: human ZY0EP0-C07 (antibody, V domains shown)
VH: QVQLVESGGVLVKPGGSLRLSCAASGFTLSDYYMSWIRQAPGMGLEWVSYISSSGSTIYYTDSVKGRFTISRDSAKNSLYLQMNSLRAEDTAVYYCARDGVGFDYWGQGTLVTVSS
VL: EIVLTQSPGTLSLFPGERATLSCRASQSVSSSYLAWYQQKPGQSPRLLIYAASSRATGIPDRFSGSGSGTDFTLTISRLEPEDFAVYYCQQYGSSPLYTFGQGTKLEIK
huB7-H1
  binding result: no binding (tested: 10 µg/ml (antigen))
huB7-H3
  binding result: no binding
huBTN1A1
  binding result: no binding (tested: 10 µg/ml (antigen))
huBTN3A2
  binding result: no binding (tested: about 10 µg/ml (antigen))
huB7-H2
  binding result: no binding (tested: 10 µg/ml (antigen))
huHHLA2
  binding result: no binding (tested: about 10 µg/ml (antigen))

B6: human ZY0EPQ-E02 (antibody, V domains shown)
VH: QVQLQQWGAGLLKPSETLSLTCAVYGGSFSGYYWNWIRQPPGKGLEWIGEINHSGSTNYNPSLKSRVTILVDTSKNQFSLKLSSVTAADTAVYYCARNLYNWNLDSWGQGTLVTVSS
VL: DIQMTQSPSSLSASVGDRVTITCRASQGIRNDLGWYQQKPGRAPKRLIYVASSLQSGVPSRFSGSGSGTEFTLTISSLQPEDFATYYCLQHNSYPRTFGQGTKVEIK
huB7-H1
  binding result: no binding (tested: 10 µg/ml (antigen))
huB7-H3
  binding result: no binding
huBTN1A1
  binding result: no binding (tested: 10 µg/ml (antigen))
huBTN3A2
  binding result: no binding (tested: about 10 µg/ml (antigen))
huB7-H2
  binding result: no binding (tested: 10 µg/ml (antigen))
huHHLA2
  binding result: no binding (tested: about 10 µg/ml (antigen))
